Data reported in patent publication US20250269046A1, “CELLULAR UPTAKE OF LARGE BIOMOLECULES ENABLED BY CELL-SURFACE-REACTIVE CELL-PENETRATING PEPTIDE ADDITIVES” (FORSCHUNGSVERBUND BERLIN E.V., priority 2021, published 2025).

What was measured:
[1] = molecular target: Lifeact-mVenus (GFP mutant, expressed in transfected HeLa CCL-2 cells); assay: confocal microscopy of live HeLa CCL-2 cells transfected with Lifeact-mVenus after delivery of 500 nM antibody with TNB-R10; colocalization of antibody and mVenus signals
[2] = molecular target: endogenous mitochondrial receptor TOMM20 (in HeLa CCL-2 cells) (UniProt Q15388); assay: cell-based or functional assay
Sequence of endogenous mitochondrial receptor TOMM20 (in HeLa CCL-2 cells) (Q15388 whole entry): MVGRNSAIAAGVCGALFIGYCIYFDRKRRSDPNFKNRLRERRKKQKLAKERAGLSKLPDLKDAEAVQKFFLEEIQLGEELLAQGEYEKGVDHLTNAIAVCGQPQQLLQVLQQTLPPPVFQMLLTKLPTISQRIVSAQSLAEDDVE

pearson correlation coefficient (PCC) of colocalization [1]	pearson correlation coefficient (PCC) of the colocalization of the delivered antibody with the mitochondrial marker MitoTracker Red CMXRos [2]	Substance
0.8	–	Alexa Fluor 594 anti-GFP Antibody, Clone 1GFP63
–	0.58	Anti-Tom20/Tomm20, clone 2F8.1 (antibody)
